Measured values from patent publication US20200109196A1 (MOGAM INSTITUTE FOR BIOMEDICAL RESEARCH, published 2020).
Where a chain is given by its changes, count along the chain named.

T1: recombinant human CEACAM-5/CD66e protein (R&D systems; Cat. No. 4128-CM) (human, UniProt P06731 35-685)
T1 construct: Bought protein; also called HCCM5
T1 sequence (looked up): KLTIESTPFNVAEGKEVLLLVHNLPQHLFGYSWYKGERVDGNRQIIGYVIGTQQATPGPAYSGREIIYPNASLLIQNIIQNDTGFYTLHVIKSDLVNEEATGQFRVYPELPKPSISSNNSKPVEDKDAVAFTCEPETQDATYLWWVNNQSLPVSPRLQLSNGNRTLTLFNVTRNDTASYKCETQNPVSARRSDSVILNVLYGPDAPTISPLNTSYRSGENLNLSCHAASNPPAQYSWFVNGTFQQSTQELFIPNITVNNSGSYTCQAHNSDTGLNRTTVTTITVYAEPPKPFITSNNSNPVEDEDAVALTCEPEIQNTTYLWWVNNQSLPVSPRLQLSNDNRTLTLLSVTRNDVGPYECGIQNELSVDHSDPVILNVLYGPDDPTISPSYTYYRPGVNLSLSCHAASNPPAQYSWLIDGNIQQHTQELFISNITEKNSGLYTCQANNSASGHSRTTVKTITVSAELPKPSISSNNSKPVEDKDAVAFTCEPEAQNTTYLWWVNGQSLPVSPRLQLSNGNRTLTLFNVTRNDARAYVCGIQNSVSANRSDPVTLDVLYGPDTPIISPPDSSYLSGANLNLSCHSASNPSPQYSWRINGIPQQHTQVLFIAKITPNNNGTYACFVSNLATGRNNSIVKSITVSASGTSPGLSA

T2: recombinant human CEACAM1-N domain-Kappa protein (Mogam, in-house production) (human, UniProt P13688 35-142, limits assumed)
T2 construct: domain: N domain; In-house fusion; also called HCCM1-N domain-kappa; HCCM1-N-domain-kappa
T2 sequence (looked up): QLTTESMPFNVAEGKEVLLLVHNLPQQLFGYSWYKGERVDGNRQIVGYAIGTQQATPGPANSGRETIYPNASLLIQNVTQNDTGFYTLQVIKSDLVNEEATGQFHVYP

T3: human CEACAM1 expressed on the cell surface (CEACAM1-Jurkat T cells); HEK293 cells transfected with human … (human, UniProt P13688 35-526)
T3 construct: whole, on cells; also called CCM1
T3 sequence (looked up): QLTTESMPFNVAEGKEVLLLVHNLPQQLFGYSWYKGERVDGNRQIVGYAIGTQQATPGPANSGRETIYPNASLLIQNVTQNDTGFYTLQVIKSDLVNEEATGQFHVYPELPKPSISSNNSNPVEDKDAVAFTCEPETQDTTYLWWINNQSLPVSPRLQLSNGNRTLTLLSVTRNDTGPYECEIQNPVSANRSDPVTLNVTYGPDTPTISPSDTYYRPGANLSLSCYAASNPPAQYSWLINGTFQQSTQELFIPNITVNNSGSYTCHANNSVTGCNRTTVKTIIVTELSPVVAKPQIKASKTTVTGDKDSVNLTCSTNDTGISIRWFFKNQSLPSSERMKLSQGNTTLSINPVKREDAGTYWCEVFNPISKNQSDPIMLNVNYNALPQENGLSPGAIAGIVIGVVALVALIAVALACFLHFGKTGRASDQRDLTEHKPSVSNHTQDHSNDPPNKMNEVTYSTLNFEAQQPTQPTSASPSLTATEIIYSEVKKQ

B1: C17 (antibody, human IgG4 S228P, lambda, V domains shown)
VH: EVQLLESGGGLVQPGGSLRLSCAASGFTFSDYSMSWVRQAPGKGLEWVSVIYPDDGNTYYADSVKGRFTISRDNSKNTLYLQMNSLRAEDTAVYYCARGSIWWLSLIPSSYNAMDVWGQGTLVAVSS
VL: QSVLTQPPSASGTPGQRVTISCSGSSSNIGNNAVNWYQQLPGTAPKLLIYANSHRPSGVPDRFSGSKSGTSASLAISGLRSEDEADYYCGAWDASLNGYVFGGGTKLTVLG
B2: C22 (antibody, human IgG4 S228P, lambda, V domains shown)
VH: EVQLLESGGGLVQPGGSLRLSCAASGFTFSDYDMSWVRQAPGKGLEWVSMIYSGSSSKYYADSVKGRFTISRDNSKNTLYLQMNSLRAEDTAVYYCAKAPLPFYFRPKSYYYAMDVWGQGTLVTVSS
VL: B1 VL with N31S, A33N, N35T, A91S, A94S, G98A
B3: C19 (antibody, human IgG4 S228P, lambda, V domains shown)
VH: EVQLLESGGGLVQPGGSLRLSCAASGFTFSGYAMSWVRQAPGKGLEWVSGIYHDGGSTYYADSVKGRFTISRDNSKNTLYLQMNSLRAEDTAVYYCARVTVLCTTYGCSSYDGMDVWGQGTLVTVSS
VL: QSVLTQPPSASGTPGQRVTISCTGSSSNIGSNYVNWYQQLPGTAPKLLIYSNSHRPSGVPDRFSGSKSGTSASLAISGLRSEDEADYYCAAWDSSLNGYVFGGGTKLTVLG
B4: C15 (antibody, human IgG4 S228P, lambda, V domains shown)
VH: EVQLLESGGGLVQPGGSLRLSCAASGFTFSSYSMSWVRQAPGKGLEWVSSISPNGGNKYYADSVKGRFTISRDNSKNTLYLQMNSLGAEDTAVYYCAKDPYNIYQPLFDYWGQGTLVTVSS
VL: B1 VL with P8L, A33Y, H54N, D83E, A91T, N97S, G98A
B5: C18 (antibody, human IgG4 S228P, lambda, V domains shown)
VH: EVQLLESGGGLVQPGGSLRLSCAASGFTFSNYDMSWVRQAPGKGLEWVSGISHSSGSKYYADSVKGRFTISRDNSKNTLYLQMNSLRAEDTAVYYCARDPLPCLIPKCSYYYAMDVWGQGTLVTVSS
VL: B1 VL with S11P, N31S, N35T, N52D, A91S, A94D, G98A
B6: 4R9 (antibody, human IgG4 S228P, lambda, V domains shown)
VH: EVQLLESGGGLVQPGGSLRLSCAASGFTFSNYAMSWVRQAPGKGLEWVSVISHGGGSIYYADSVKGRLTISRDNSKNTLYLQMNSLRAEDTAVYYCARDPTKGYAPTFDYWGQGTLVTVSS
VL: B1 VL with A33Y, N35S, N52D, H54R, A94L
notes: also called C25-derived clone 4R9
B7: 4R9_H2-2 (antibody, human IgG4 S228P, lambda, V domains shown)
VH: B6 VH with T107L
VL: B1 VL with A33Y, N35S, N52D, H54R, A94L
notes: also called C25-derived clone 4R9_H2-2
B8: 4R26 (antibody, human IgG4 S228P, lambda, V domains shown)
VH: B6 VH
VL: B1 VL with A33Y, N35S, N52D, H54K, P56L, A94G, S95R
notes: also called C25-derived clone 4R26

target: T1, recombinant human CEACAM-5/CD66e …; assay: ELISA on coated antigen (0.25 µg/ml), antibody 3 µg/ml, HRP anti-human IgG Fc, OD450
Description: (§1) All of the recombinant human CEACAM-1/CD66a protein (R&D systems; Cat No. 2244-CM, HCCM1), recombinant human CEACAM-5/CD66e protein (R&D systems; Cat. No. 4128-CM, HCCM5), recombinant human CEACAM-6/CD66c protein (R&D systems; Cat. No. 3934-CM, HCCM6), recombinant human CEACAM-3/CD66d protein (Sino Biological; Cat. No. 11933-H08H, HCCM3), human B7-H5/Gi24/VISTA protein (Sino Biological; Cat. No. 13482-H08H, HVISTA), recombinant human CEACAM-1/CD66a protein Bulk (R&D systems; Cat. No. 2244-CM, HCCM1 (bulk)), recombinant human CEACAM1-N domain-Kappa protein (Mogam, in-house production, HCCM1-N domain-kappa), and BSA protein (2.5 μg each) were dissolved in 10 ml of PBS, respectively, and dispensed into a 96-well plate at 100 μl/well, which was incubated at 4° C. overnight. Thereafter, each well was treated with 300 μl of 1% (v/v) bovine serum albumin, and incubated at 37° C. for 1 hour.
(§2) The diluted antibodies were dispensed into each well coated with each protein at 100 μl/well, and incubated at 37° C. for 1 hour. Then, each well was washed 3 times with a washing buffer prepared by diluting 10 μl of Tween 20 (Sigma-Aldrich; Cat. No. P9146) in 990 μl of PBS. Thereafter, 2 μl of HRP-conjugated human anti-IgG-Fc antibody (anti-human IgG Fc, Sigma Cat. No. A0170) was diluted in 10 ml of PBS, added to the wells at 100 μl/well, and incubated for 1 hour.
(§3) After completion of the reaction, the wells were washed three times with the washing buffer, and 100 μl of TMB solution was added to each well to induce color development. Then, 100 μl of 2 M H₂SO₄ was added to each well to stop the reaction, and the absorbance was measured at a wavelength of 450 nm.

binding result | Binder
binds | B1
binds | B2
binds | B3

target: T2, recombinant human CEACAM1-N …; assay: as above
Description: as §1, §2, §3

binding result | Binder
binds | B4
binds | B5
binds | B1
binds | B2
binds | B3

target: T3, human CEACAM1 expressed on the cell …; assay: flow cytometry on CEACAM1-Jurkat T cells, antibody at 0.2 µg/ml
Experimental: The CEACAM1-Jurkat T cells prepared above were treated with Fc block solution and incubated for 15 minutes. […] Herein, it is noted that the cell numbers were adjusted to 1×10⁵. The cells incubated with the antibodies were repeatedly subjected to the washing procedure of resuspending the cells in a FACS buffer and centrifuging the solution at 1,500 rpm.
PE-conjugated goat anti-human F(ab)₂; (Sigma; Cat. No. P8047)) was diluted in the FACS buffer at a volume ratio of 1:200, and then added to the cells at 100 μl/well. Cells were resuspended well and incubated at 4° C. for 30 minutes in a dark condition.
The cells incubated with the fixation buffer were repeatedly subjected to the washing procedure of resuspending the cells in a FACS buffer, centrifuging the solution at 1,500 rpm, and discarding the supernatant. The washed cells were resuspended in 200 μl of a FACS buffer, and the mean fluorescence intensities (MFIs) of the PE-labeled cells were monitored by a FACS LSR-Fortessa. All FACS analyses were conducted using the FlowJo software.

percent of maximal binding level | Binder
80% | B6
80% | B7
80% | B8
